The series in a line: self-splicing fitness, log relative to wild type (ln ratio); higher = more splicing; Tetrahymena group I intron in knt gene, E. coli kanamycin selection, DiMSum; sequences stand for … in CUCUCU…GGAGGGAAAAGUUAUCAGGCAUGCACCUGGUAGCUAGUCUUUAAACCAAUAGAUUGCAUCGGUUUAAAAGGCAAGACCGUCAAAUUGCGGGAAAGGGGUCAACAGCCGUUCAGUACCAAGUCUCAGGGGAAACUUUGAGAUGGCCUUGCAAAGGGUAUGGUAAUAAGCUGACGGACAUGGUCCUAACCACGCAGCCAAGUCCUAAGUCAACAGAUCUUCUGUUGAUAUGGAUGCAGUUCACAGACUAAAUGUCGGUCGGGGAAGAUGUAUUCUUCUCAUAAGAUAUAGUCGGACCUCUCCUUAAUGGGAGCUAGCGGAUGAAGUGAUGCAACACUGGAGCCGCUGGGAACUAAUUUGUAUGCGAAAGUAUAUUGAUUAGUUUUGGAGUACUCGUGGUCG
The essentials: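 DiMSum derived fitness as the error-weighted combination of fold changes across replicates, kanamycin versus no kanamycin, normalised to wild type. E. coli BL21(DE3) held the library, which randomised all eight P1ex-region intron nucleotides within the knt kanamycin-resistance gene on pET-22b(+). Six replicate transformations grew overnight at 37°C or 30°C on LB agar with or without 25 μg/mL kanamycin, also containing 100 μg/mL carbenicillin, 50 μM IPTG and 0.2% rhamnose, and pooled colonies were amplicon-sequenced on an Illumina HiSeq 2500.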

± gives the uncertainty stated by the source.

For UUUCAGCAAUAUUACGACCU, the “self-splicing fitness (ln)” value (30 °C) was -1.28 ± 0.25 and the “self-splicing fitness (ln)” value (37 °C) is -0.834 ± 0.43.

As to CACCAGCAAUAUUACGAAUC, the “self-splicing fitness (ln)” value was -4.57 ± 0.31 (30 °C) and -0.445 ± 0.18 (37 °C). For AGUCAGCAAUAUUACGAGUG, the “self-splicing fitness (ln)” value is, setting by setting: (30 °C) -2.14 ± 0.079; (37 °C) -0.966 ± 0.095. Take CAGCAGCAAUAUUACGUAGA: the “self-splicing fitness (ln)” value is -2.13 ± 0.071 (30 °C) and -1.57 ± 0.097 (37 °C).

GGCUAGCAAUAUUACGGAAG: the “self-splicing fitness (ln)” value runs as follows: (30 °C) -1.13 ± 0.11; (37 °C) -0.386 ± 0.14. For GAUAAGCAAUAUUACGCUUA the same measures were -3.59 ± 0.31 and -2.91 ± 0.23. Turning to AGACAGCAAUAUUACGGCAA, the “self-splicing fitness (ln)” value is -1.37 ± 0.064 (30 °C) and -0.634 ± 0.079 (37 °C). For CCGGAGCAAUAUUACGCAUU, in that order: -2.9 ± 0.39 and -1.81 ± 0.45.

On to GUGGAGCAAUAUUACGUUGG, for which the “self-splicing fitness (ln)” value reads like this: (30 °C) -3.39 ± 0.28; (37 °C) -3.36 ± 0.43.

Regarding GGGCAGCAAUAUUACGCCUC, the “self-splicing fitness (ln)” value (37 °C) is -1.42 ± 0.31. With AUAUAGCAAUAUUACGAAUA, the “self-splicing fitness (ln)” value (30 °C) is -1.36 ± 0.32. For the sequence CGCUAGCAAUAUUACGCUUG, the “self-splicing fitness (ln)” value (30 °C) was -3.3 ± 0.27 and the “self-splicing fitness (ln)” value (37 °C) was -3 ± 0.4. For GUAUAGCAAUAUUACGUCUU, the “self-splicing fitness (ln)” value was -1.64 ± 0.14 (30 °C) and 0.0317 ± 0.13 (37 °C).

On to GAAUAGCAAUAUUACGACUA, for which the “self-splicing fitness (ln)” value (30 °C) was -1.42 ± 0.2 and the “self-splicing fitness (ln)” value (37 °C) is -0.533 ± 0.31. On to CCGUAGCAAUAUUACGUGGG, for which the “self-splicing fitness (ln)” value (30 °C) is -4.15 ± 0.2 and the “self-splicing fitness (ln)” value (37 °C) is -3.05 ± 0.17. For GAUAAGCAAUAUUACGCAGG, in that order: -1.69 ± 0.13 and -2.95 ± 0.21. In the case of GUGCAGCAAUAUUACGCCAA, the “self-splicing fitness (ln)” value is -1.41 ± 0.14 (30 °C) and -1.72 ± 0.14 (37 °C).

Turning to GGGCAGCAAUAUUACGUGGA, the “self-splicing fitness (ln)” value by setting is: (30 °C) -2.81 ± 0.11; (37 °C) -1.62 ± 0.099. For CCAUAGCAAUAUUACGCGCG, in that order: -0.974 ± 0.091 and -0.0324 ± 0.1. With ACAGAGCAAUAUUACGUUAU, the “self-splicing fitness (ln)” value is, setting by setting: (30 °C) -3.59 ± 0.19; (37 °C) -3 ± 0.25. For GCAUAGCAAUAUUACGCACU the same measures were -0.629 ± 0.09 and -0.277 ± 0.13.

On to UCUCAGCAAUAUUACGGGAC, for which the “self-splicing fitness (ln)” value runs as follows: (30 °C) -2.31 ± 0.24; (37 °C) -2.87 ± 0.38. Regarding UCCAAGCAAUAUUACGAUUC, the “self-splicing fitness (ln)” value was -2.6 ± 0.37 (30 °C) and -2.18 ± 0.34 (37 °C).

As for ACUUAGCAAUAUUACGAAGG, the “self-splicing fitness (ln)” value is -2.08 ± 0.12 (30 °C) and -1.33 ± 0.17 (37 °C). Turning to CAGUAGCAAUAUUACGGCAG, the “self-splicing fitness (ln)” value runs as follows: (30 °C) -0.259 ± 0.073; (37 °C) 0.0185 ± 0.1. For the sequence AUUCAGCAAUAUUACGCAAG, the “self-splicing fitness (ln)” value (30 °C) is -1.26 ± 0.098 and the “self-splicing fitness (ln)” value (37 °C) is -0.884 ± 0.13. Turning to GAAUAGCAAUAUUACGUUCG, the “self-splicing fitness (ln)” value (30 °C) was -1.16 ± 0.13 and the “self-splicing fitness (ln)” value (37 °C) was -0.541 ± 0.17. In the case of UACUAGCAAUAUUACGGUCA, the “self-splicing fitness (ln)” value runs as follows: (30 °C) 0.103 ± 0.086; (37 °C) 0.31 ± 0.083. For UAGGAGCAAUAUUACGUGGA, in that order: -2.34 ± 0.38 and -1.43 ± 0.22. As for GGCUAGCAAUAUUACGGCAA, the “self-splicing fitness (ln)” value reads like this: (30 °C) 0.218 ± 0.07; (37 °C) -0.682 ± 0.086. As to AUCUAGCAAUAUUACGUUAU, the “self-splicing fitness (ln)” value is, setting by setting: (30 °C) -1.79 ± 0.11; (37 °C) -1.46 ± 0.11.

AUAUAGCAAUAUUACGUUUC: the “self-splicing fitness (ln)” value (30 °C) is -2.54 ± 0.27 and the “self-splicing fitness (ln)” value (37 °C) was -1.45 ± 0.3. On to CUCGAGCAAUAUUACGUUAA, for which the “self-splicing fitness (ln)” value by setting is: (30 °C) -3.68 ± 0.2; (37 °C) -2.53 ± 0.17. With CUAAAGCAAUAUUACGAUGU, the “self-splicing fitness (ln)” value (30 °C) was -3.84 ± 0.18 and the “self-splicing fitness (ln)” value (37 °C) was -2.58 ± 0.2. For CCCUAGCAAUAUUACGUCAU, in that order: -2.27 ± 0.13 and -3.11 ± 0.24. Take GAACAGCAAUAUUACGAAGG: the “self-splicing fitness (ln)” value was -2.59 ± 0.17 (30 °C) and -3.26 ± 0.28 (37 °C). For AGUGAGCAAUAUUACGAUCG the same measures were -0.663 ± 0.23 and -0.975 ± 0.24.

In the case of GGCUAGCAAUAUUACGGGUA, the “self-splicing fitness (ln)” value is -0.679 ± 0.12 (30 °C) and -0.368 ± 0.11 (37 °C).

With CACGAGCAAUAUUACGAUGC, the “self-splicing fitness (ln)” value was -3.47 ± 0.37 (30 °C) and -2.74 ± 0.29 (37 °C).

For the sequence UAAUAGCAAUAUUACGUAUU, the “self-splicing fitness (ln)” value (30 °C) was -4.09 ± 0.28 and the “self-splicing fitness (ln)” value (37 °C) is -1.95 ± 0.16. For GAACAGCAAUAUUACGUGCU the same measures were -2.89 ± 0.14 and -1.88 ± 0.14. For GGCCAGCAAUAUUACGAUGU, in that order: -2.4 ± 0.092 and -1.92 ± 0.12. For GCGUAGCAAUAUUACGUAUC, in that order: -3.35 ± 0.38 and -0.739 ± 0.2. With UCCCAGCAAUAUUACGCGGU, the “self-splicing fitness (ln)” value (30 °C) was -3.01 ± 0.13 and the “self-splicing fitness (ln)” value (37 °C) is -0.898 ± 0.087. As to GGCCAGCAAUAUUACGUAUU, the “self-splicing fitness (ln)” value (30 °C) was -2.14 ± 0.11 and the “self-splicing fitness (ln)” value (37 °C) is -0.199 ± 0.087. Regarding AUCGAGCAAUAUUACGAGAG, the “self-splicing fitness (ln)” value (30 °C) is -3.84 ± 0.39 and the “self-splicing fitness (ln)” value (37 °C) was -1.14 ± 0.19. For GAAUAGCAAUAUUACGGGCG, in that order: -1.16 ± 0.078 and -0.509 ± 0.1.

For GCUAAGCAAUAUUACGCGGA, the “self-splicing fitness (ln)” value was -2.73 ± 0.2 (30 °C) and -1.1 ± 0.15 (37 °C).

Consider GACCAGCAAUAUUACGUGAC, for which the “self-splicing fitness (ln)” value reads like this: (30 °C) -1.27 ± 0.069; (37 °C) -1.7 ± 0.11. Regarding GCUCAGCAAUAUUACGGCUC, the “self-splicing fitness (ln)” value was -0.525 ± 0.13 (30 °C) and 0.408 ± 0.17 (37 °C). For CGUGAGCAAUAUUACGCAGG, in that order: -1.54 ± 0.11 and -2.14 ± 0.15. Take CACUAGCAAUAUUACGGACC: the “self-splicing fitness (ln)” value (37 °C) is -1.8 ± 0.24. Consider GUGGAGCAAUAUUACGGCCG, for which the “self-splicing fitness (ln)” value is, setting by setting: (30 °C) -3.44 ± 0.28; (37 °C) -2.03 ± 0.22.

For the sequence ACAUAGCAAUAUUACGAUUC, the “self-splicing fitness (ln)” value by setting is: (30 °C) -2.52 ± 0.15; (37 °C) -1.52 ± 0.12. For CCCUAGCAAUAUUACGAAAU the same measures were -2.88 ± 0.21 and -2.59 ± 0.31. For AGGAAGCAAUAUUACGGGCC the same measures were -3.5 ± 0.42 and -0.18 ± 0.2. Consider CAUAAGCAAUAUUACGGAGG, for which the “self-splicing fitness (ln)” value is -2.3 ± 0.11 (30 °C) and -0.959 ± 0.13 (37 °C). For ACUAAGCAAUAUUACGUGAA, in that order: -1.24 ± 0.074 and -0.939 ± 0.1.

For UGACAGCAAUAUUACGCACC, the “self-splicing fitness (ln)” value runs as follows: (30 °C) -1.38 ± 0.12; (37 °C) -0.767 ± 0.17. For UCUGAGCAAUAUUACGUCUA, in that order: -1.67 ± 0.18 and -2.17 ± 0.26.

For the sequence UACUAGCAAUAUUACGGGCC, the “self-splicing fitness (ln)” value by setting is: (30 °C) -3.27 ± 0.17; (37 °C) -3.17 ± 0.23.

With AUAGAGCAAUAUUACGAGGG, the “self-splicing fitness (ln)” value (30 °C) is -3.05 ± 0.25 and the “self-splicing fitness (ln)” value (37 °C) is -1.56 ± 0.26.

Regarding UGGGAGCAAUAUUACGGCGA, the “self-splicing fitness (ln)” value was -1.73 ± 0.36 (30 °C) and -1.23 ± 0.28 (37 °C). For GGCAAGCAAUAUUACGUAGG the same measures were -1.09 ± 0.061 and -0.937 ± 0.088.

For the sequence UCACAGCAAUAUUACGCCGU, the “self-splicing fitness (ln)” value by setting is: (30 °C) -4.25 ± 0.46; (37 °C) -3.02 ± 0.35. For UAAUAGCAAUAUUACGUGCG, in that order: 0.0578 ± 0.065 and -0.0439 ± 0.091. For CACCAGCAAUAUUACGGAUU the same measures were -2.05 ± 0.055 and -1.36 ± 0.085. For UUUUAGCAAUAUUACGAGCU the same measures were -2.57 ± 0.33 and -2.22 ± 0.31. Consider ACGCAGCAAUAUUACGUCUA, for which the “self-splicing fitness (ln)” value is, setting by setting: (30 °C) -1.55 ± 0.096; (37 °C) -1.22 ± 0.08. As to CGAUAGCAAUAUUACGUAUC, the “self-splicing fitness (ln)” value (30 °C) is -3.4 ± 0.3. On to ACUGAGCAAUAUUACGUCAA, for which the “self-splicing fitness (ln)” value was -3.09 ± 0.23 (30 °C) and -2.31 ± 0.19 (37 °C). With GAUAAGCAAUAUUACGAACU, the “self-splicing fitness (ln)” value reads like this: (30 °C) -0.896 ± 0.079; (37 °C) -0.073 ± 0.11.

Take CCAAAGCAAUAUUACGACCG: the “self-splicing fitness (ln)” value runs as follows: (30 °C) -0.022 ± 0.096; (37 °C) -0.0691 ± 0.14. Consider GGCGAGCAAUAUUACGACAA, for which the “self-splicing fitness (ln)” value (37 °C) is -1.05 ± 0.34. Consider AGCCAGCAAUAUUACGUCGC, for which the “self-splicing fitness (ln)” value (30 °C) is -3.44 ± 0.35 and the “self-splicing fitness (ln)” value (37 °C) is -2.74 ± 0.21. Regarding UGAAAGCAAUAUUACGUUCA, the “self-splicing fitness (ln)” value (30 °C) was -2.03 ± 0.13 and the “self-splicing fitness (ln)” value (37 °C) was -1.48 ± 0.14.

The record behind these values is the supplement of paper PMC7877785.
